Tests used:
[1] = target: RetGC (Homo sapiens) (UniProt Q02846); conditions: cited from earlier work
[2] = target: the molecule itself; test: SEC; analytical SEC, Superdex 75 Increase 10/300 GL, six dilutions (87-2 µM injected); 20 mM Tris-HCl pH 8.0, 100 mM NaCl, 1 mM DTT, 5 mM CaCl2; Ca2+-bound; Kd from a 3-parameter fit of elution volume against concentration; dimer to monomers
[3] = target: the molecule itself; test: SEC; analytical SEC, Superdex 75 Increase 10/300 GL, dilution series; 20 mM Tris-HCl pH 8.0, 100 mM NaCl, 1 mM DTT, 5 mM MgCl2, 2.5 mM EGTA; Mg2+-bound; Kd from a 3-parameter fit of elution volume against concentration; dimer to monomers
[4] = target: the molecule itself; test: MST; NT-647-NHS-labelled hGCAP1 with 16 dilutions of unlabelled hGCAP1 (46.6 µM to 11.4 nM); 20 mM Tris-HCl, 100 mM NaCl, pH 7.5, 1 mM DTT, 5 mM CaCl2, 0.05% Tween20; 24 °C; Ca2+-bound; dimer to monomers
[5] = target: the molecule itself; test: MST; NT-647-NHS-labelled hGCAP1 with dilutions of unlabelled hGCAP1; 20 mM Tris-HCl, 150 mM KCl, 5 mM MgCl2, 2.5 mM EGTA, pH 7.5, 1 mM DTT, 0.05% Tween20; Mg2+-bound; dimer to monomers

Chain of RetGC (Homo sapiens) (Q02846 52-1103): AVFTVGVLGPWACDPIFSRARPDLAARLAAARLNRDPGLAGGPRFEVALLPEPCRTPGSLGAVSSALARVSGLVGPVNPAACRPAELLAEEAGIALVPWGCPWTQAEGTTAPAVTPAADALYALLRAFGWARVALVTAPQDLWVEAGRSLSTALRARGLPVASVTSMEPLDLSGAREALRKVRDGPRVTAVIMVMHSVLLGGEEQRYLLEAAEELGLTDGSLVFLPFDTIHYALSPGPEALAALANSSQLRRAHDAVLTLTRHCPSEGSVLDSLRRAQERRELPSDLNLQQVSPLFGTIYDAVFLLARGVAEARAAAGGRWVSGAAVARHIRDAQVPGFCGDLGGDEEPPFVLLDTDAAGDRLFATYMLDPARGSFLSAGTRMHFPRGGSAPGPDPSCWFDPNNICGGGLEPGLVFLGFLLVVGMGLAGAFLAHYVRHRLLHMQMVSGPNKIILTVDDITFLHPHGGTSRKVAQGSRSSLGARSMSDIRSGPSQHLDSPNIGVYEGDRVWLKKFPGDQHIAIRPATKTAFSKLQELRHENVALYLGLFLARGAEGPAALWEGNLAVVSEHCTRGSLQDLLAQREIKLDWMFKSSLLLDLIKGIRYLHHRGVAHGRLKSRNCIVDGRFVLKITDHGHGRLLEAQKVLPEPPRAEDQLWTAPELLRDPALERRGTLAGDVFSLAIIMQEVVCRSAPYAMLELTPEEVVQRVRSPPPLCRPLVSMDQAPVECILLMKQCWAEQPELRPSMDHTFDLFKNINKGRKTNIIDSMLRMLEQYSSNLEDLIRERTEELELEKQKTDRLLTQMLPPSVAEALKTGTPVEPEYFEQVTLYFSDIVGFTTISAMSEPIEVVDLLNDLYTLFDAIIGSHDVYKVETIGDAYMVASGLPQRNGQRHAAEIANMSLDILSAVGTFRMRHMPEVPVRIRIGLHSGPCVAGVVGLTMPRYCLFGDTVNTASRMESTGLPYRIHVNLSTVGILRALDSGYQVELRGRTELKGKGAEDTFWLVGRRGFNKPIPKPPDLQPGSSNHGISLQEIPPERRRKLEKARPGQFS
Chain of GCAP1 (P43080 2-201): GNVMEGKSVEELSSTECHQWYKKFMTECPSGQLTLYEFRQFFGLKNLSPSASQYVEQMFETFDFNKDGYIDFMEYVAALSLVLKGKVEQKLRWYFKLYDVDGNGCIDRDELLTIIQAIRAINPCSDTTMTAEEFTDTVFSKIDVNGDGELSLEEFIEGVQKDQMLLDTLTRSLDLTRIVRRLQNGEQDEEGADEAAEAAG

Molecule	Kd [1] [µM]	Kd [2] [µM]	stoichiometry N [2]	Kd [3] [µM]	Kd [4] [µM]	Kd [5] [µM]
GCAP1 (from UniProt P43080)	3.2					
human guanylyl cyclase-activating protein 1 (hGCAP1), N-terminally myristoylated, E6S (natural protein, UniProt P43080 1-201, looked up, N-terminal myristoylation (myristoylated Gly at the N-term); in the MST experiments the labelled copy carries the dye NT-647-NHS on primary amines (lysine residues), about 1:1, printed as 201 amino acids, 22.9 kDa; E6S needed for myristoylation in E. coli; In MST a dye-labelled copy was titrated with unlabelled protein; also called human GCAP1; recombinant human (h) GCAP1; source: E. coli BL21-CodonPlus RP, co-expressed with yeast N-myristoyltransferase, purified (ion exchange, SEC)) MGNVMSGKSVEELSSTECHQWYKKFMTECPSGQLTLYEFRQFFGLKNLSPSASQYVEQMFETFDFNKDGYIDFMEYVAALSLVLKGKVEQKLRWYFKLYDVDGNGCIDRDELLTIIQAIRAINPCSDTTMTAEEFTDTVFSKIDVNGDGELSLEEFIEGVQKDQMLLDTLTRSLDLTRIVRRLQNGEQDEEGADEAAEAAG		8.8 ± 0.7	2	45 ± 15	9.4 ± 1.3	77.2 ± 8.9

From PMC7600425, “Modulation of Guanylate Cyclase Activating Protein 1 (GCAP1) Dimeric Assembly by Ca^2+ or Mg^2+: Hints to Understand Protein Activity” (Biomolecules, 2020)
